Target: T1, NAC CoV2 Mosaic (SARS-COV-2)
T1 construct: also called NAC Mosaic (The Native Antigen Company)
Assay: ForteBio

B1: SC2 antibody 3396 (antibody, V domains shown)
VH: GVQLVESGGGLVQPGRSLRVSCAASGFTFADYAMHWVRQAPGKGLEWVSGISWNSGNIAYADSVKGRFTISRDNAKNSLYLQMDSLRPDDTALYYCVKASTLYYYFYMDVWGKGTTVTVSS
VL: QSALTQPPSASGSPGQSVTISCTGTSSDVGGYDYVSWYQQHPGKAPKFMIYEVSKRPSGVPDRFSGSKSGNTASLTVSGLQAEDEADYYCCSYAGSNNYVFGTGTKVTVLG
notes: also called Anti-SARS-COV-2 antibody 3396
B1 showed a Kd of 21 nM.

— patent US20240190946A1 (AUGMENTA BIOWORKS, published 2024)
